Measurements as given in US20180264072A1 (PARIS SCIENCES ET LETTRES QUARTER LATIN, published 2018).

B1: vinculin D1 domain (HVD1) (other)
chain: MPVFHTRTIESILEPVAQQISHLVIMHEEGEVDGKAIPDLTAPVAAVQAAVSNLVRVGKETVQTTEDQILKRDMPPAFIKVENACTKLVQAAQMLQSDPYSVPARDYLIDGSRGILSGTSDLLLTFDEAEVRKIIRVCKGILEYLTVAEVVETMEDLVTYTKNLGPGMTKMAKMIDERQQELTHQEHRVMLVNSMNTVKELLPVLISAMKIFVTTKNSKNQGIEEALKNRNFTVEKMSAEINEIIRVLQLTSWDEDAW
notes: also called D1 domain of vinculin
B2: IpaA 524-633 (A524) (other)
chain: KSKDITKSTTEHRINNKLKVTDANIRNYVTETNADTIDKNHAIYEKAKEVSSALSKVLSKIDDTSAELLTDDISDLKNNNDITAENNNIYKAAKDVTTSLSKVLKNINKD
B3: full-length human vinculin (HV) (other)
chain: MPVFHTRTIESILEPVAQQISHLVIMHEEGEVDGKAIPDLTAPVAAVQAAVSNLVRVGKETVQTTEDQILKRDMPPAFIKVENACTKLVQAAQMLQSDPYSVPARDYLIDGSRGILSGTSDLLLTFDEAEVRKIIRVCKGILEYLTVAEVVETMEDLVTYTKNLGPGMTKMAKMIDERQQELTHQEHRVMLVNSMNTVKELLPVLISAMKIFVTTKNSKNQGIEEALKNRNFTVEKMSAEINEIIRVLQLTSWDEDAWASKDTEAMKRALASIDSKLNQAKGWLRDPSASPGDAGEQAIRQILDEAGKVGELCAGKERREILGTCKMLGQMTDQVADLRARGQGSSPVAMQKAQQVSQGLDVLTAKVENAARKLEAMTNSKQSIAKKIDAAQNWLADPNGGPEGEEQIRGALAEARKIAELCDDPKERDDILRSLGEISALTSKLADLRRQGKGDSPEARALAKQVATALQNLQTKTNRAVANSRPAKAAVHLEGKIEQAQRWIDNPTVDDRGVGQAAIRGLVAEGHRLANVMMGPYRQDLLAKCDRVDQLTAQLADLAARGEGESPQARALASQLQDSLKDLKARMQEAMTQEVSDVFSDTTTPIKLLAVAATAPPDAPNREEVFDERAANFENHSGKLGATAEKAAAVGTANKSTVEGIQASVKTARELTPQVVSAARILLRNPGNQAAYEHFETMKNQWIDNVEKMTGLVDEAIDTKSLLDASEEAIKKDLDKCKVAMANIQPQMLVAGATSIARRANRILLVAKREVENSEDPKFREAVKAASDELSKTISPMVMDAKAVAGNISDPGLQKSFLDSGYRILGAVAKVREAFQPQEPDFPPPPPDLEQLRLTDELAPPKPPLPEGEVPPPRPPPPEEKDEEFPEQKAGEVINQPMMMAARQLHDEARKWSSKGNDIIAAAKRMALLMAEMSRLVRGGSGTKRALIQCAKDIAKASDEVTRLAKEVAKQCTDKRIRTNLLQVCERIPTISTQLKILSTVKATMLGRTNISDEESEQATEMLVHNAQNLMQSVKETVREAEAASIKIRTDAGFTLRWVRKTPWYQ
B4: IpaA 483-633 (A483) (other)
chain: GDTYLTRETIFEASKKVTNSLSNLISLIGTKSGTQERELQEKSKDITKSTTEHRINNKLKVTDANIRNYVTETNADTIDKNHAIYEKAKEVSSALSKVLSKIDDTSAELLTDDISDLKNNNDITAENNNIYKAAKDVTTSLSKVLKNINKD

How the values were obtained:
[1] = biological target: T1, talin H1-H4; test: size exclusion chromatography; stoichiometry listed for the complex
T1 construct: domain: H1-H4; also called TlnH1-H4; T1nH1-H4

[2] = biological target: B3; test: solid phase (ELISA) assay, HV coated, A524 in solution
[3] = biological target: B4; test: solid phase (ELISA) assay, A483 coated, HV in solution
[4] = biological target: B2; test: solid phase (ELISA) assay, A524 coated, HV in solution
[5] = biological target: B3; test: solid phase (ELISA) assay, HV coated, A483 in solution
[6] = biological target: B1; test: solid phase (ELISA) assay, HVD1 coated, A483 in solution
[7] = biological target: B1; test: size exclusion chromatography; stoichiometry listed for the complex

T1 sequence (P26039 482-636): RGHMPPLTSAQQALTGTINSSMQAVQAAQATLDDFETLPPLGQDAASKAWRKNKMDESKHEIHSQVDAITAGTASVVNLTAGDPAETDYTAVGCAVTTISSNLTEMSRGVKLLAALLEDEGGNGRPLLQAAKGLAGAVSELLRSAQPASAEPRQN

For B1, the stoichiometry [1] was 1 molar ratio of the complex (1:1).

For B2, the “EC50 (read off the curve)” value [2] was about 300 pM.

In the case of B3, the “EC50 (read off the curve)” value [3] is reported as about 5000 pM and the “EC50 (read off the curve)” value [4] is reported as about 4000 pM.

In the case of B4, the “EC50 (read off the curve)” value [5] is reported as 200 to 300 pM, the “EC50 (read off the curve)” value [6] is reported as about 800 pM and the stoichiometry [7] is reported as 1 molar ratio of the complex (1:1).
